Reference: PMC13423800, “De novo design of potent CRISPR–Cas13 inhibitors” (Nature Chemical Biology, 2024)

T1: LbuCas13a (Leptotrichia buccalis, UniProt C7NBY4)
T1 sequence: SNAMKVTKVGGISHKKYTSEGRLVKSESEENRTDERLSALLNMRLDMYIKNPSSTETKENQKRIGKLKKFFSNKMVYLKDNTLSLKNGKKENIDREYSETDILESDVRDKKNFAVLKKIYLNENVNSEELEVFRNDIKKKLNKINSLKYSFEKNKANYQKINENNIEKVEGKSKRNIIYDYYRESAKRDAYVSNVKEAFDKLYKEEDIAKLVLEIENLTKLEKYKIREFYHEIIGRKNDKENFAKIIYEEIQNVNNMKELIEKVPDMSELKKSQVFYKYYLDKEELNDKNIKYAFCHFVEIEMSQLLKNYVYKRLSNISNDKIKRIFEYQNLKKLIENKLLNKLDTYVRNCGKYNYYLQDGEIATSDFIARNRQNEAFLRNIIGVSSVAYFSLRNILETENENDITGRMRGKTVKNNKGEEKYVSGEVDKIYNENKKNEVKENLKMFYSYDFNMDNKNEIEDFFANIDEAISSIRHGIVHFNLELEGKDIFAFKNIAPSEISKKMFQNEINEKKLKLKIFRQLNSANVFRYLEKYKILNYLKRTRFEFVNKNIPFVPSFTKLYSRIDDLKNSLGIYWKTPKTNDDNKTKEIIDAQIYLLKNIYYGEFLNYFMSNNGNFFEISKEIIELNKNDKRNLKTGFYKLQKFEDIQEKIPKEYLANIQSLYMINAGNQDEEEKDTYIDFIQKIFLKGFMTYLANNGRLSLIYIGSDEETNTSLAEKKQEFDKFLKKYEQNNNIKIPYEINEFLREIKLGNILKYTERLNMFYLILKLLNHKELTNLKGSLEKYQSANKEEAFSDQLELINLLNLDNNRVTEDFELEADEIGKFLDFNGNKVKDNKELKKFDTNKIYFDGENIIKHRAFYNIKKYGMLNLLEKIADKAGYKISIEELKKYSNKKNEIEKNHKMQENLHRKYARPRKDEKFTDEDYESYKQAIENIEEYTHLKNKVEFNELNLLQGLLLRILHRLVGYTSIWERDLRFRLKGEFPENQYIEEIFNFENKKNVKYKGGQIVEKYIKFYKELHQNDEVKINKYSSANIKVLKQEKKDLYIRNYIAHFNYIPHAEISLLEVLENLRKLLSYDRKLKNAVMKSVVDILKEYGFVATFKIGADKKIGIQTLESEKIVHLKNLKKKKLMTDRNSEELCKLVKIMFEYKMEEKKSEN

T2: Leptotrichia buccalis (Lbu) CRISPR–Cas13a (Leptotrichia buccalis, UniProt C7NBY4 1-1159)
T2 sequence: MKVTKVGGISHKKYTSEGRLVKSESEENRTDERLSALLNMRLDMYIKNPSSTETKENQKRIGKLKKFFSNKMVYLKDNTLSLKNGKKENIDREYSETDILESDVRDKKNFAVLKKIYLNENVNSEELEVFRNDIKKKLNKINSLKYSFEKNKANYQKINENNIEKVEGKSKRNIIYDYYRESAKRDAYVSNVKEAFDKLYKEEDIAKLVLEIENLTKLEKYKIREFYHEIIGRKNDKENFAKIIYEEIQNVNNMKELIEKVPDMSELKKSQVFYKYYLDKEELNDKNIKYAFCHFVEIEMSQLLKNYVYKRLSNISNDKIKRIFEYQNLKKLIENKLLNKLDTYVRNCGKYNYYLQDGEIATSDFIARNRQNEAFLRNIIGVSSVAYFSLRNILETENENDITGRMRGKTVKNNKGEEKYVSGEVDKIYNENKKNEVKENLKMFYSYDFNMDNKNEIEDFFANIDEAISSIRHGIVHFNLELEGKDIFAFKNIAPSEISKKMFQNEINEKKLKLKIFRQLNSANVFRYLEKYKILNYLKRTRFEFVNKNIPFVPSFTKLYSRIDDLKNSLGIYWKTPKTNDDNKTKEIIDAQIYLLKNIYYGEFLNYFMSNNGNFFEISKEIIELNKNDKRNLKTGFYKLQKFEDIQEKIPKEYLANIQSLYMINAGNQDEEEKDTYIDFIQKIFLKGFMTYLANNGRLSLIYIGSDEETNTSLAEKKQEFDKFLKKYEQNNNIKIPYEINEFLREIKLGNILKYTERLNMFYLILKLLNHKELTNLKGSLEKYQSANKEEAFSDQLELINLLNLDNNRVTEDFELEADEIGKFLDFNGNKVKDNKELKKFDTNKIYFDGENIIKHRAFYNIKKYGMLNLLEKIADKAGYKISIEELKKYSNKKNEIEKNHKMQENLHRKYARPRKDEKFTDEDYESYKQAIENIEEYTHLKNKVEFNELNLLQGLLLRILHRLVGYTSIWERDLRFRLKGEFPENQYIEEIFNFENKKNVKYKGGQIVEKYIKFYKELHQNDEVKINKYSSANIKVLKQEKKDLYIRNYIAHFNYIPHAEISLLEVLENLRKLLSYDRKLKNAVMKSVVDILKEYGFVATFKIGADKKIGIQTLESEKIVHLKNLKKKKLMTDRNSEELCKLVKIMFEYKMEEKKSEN


Assays:
LbuCas13a = molecular target: T1, LbuCas13a; assay: fluorescence polarization; no AIcr (control); 40 nM aRNA, RNP titrated; FP: 1x Cas13a cleavage buffer (composition not in the material), RNP twofold dilutions, 40 nM FAM-aRNA, 2 uM AIcrVIA, 2 h at 37 C; conditions: protein: recombinant; tags: 6xHis-MBP, removed with TEV (SNA left at the N-terminus); label: 5'-6-FAM on aRNA; guide:target 24 bp; guide 5' repeat single-stranded/hairpin; target overhangs 5' C and 3' CC
[1] = molecular target: T2, Leptotrichia buccalis (Lbu) …; assay: cell-based or functional assay

| IC50 of inhibition of the LbuCas13a HEPN nuclease (velocity of reporter RNA cleavage by LbuCas13a–crRNA–aRNA against AIcrVIA concentration) [1] | Binder | binding result (LbuCas13a) |
| --- | --- | --- |
|  | FP crRNA / 5'-FAM aRNA (mixed, first C of the aRNA is deoxyribose (C*)) RNA: UAGACCACCCCAAAAAUGAAGGGGACUAAAACUUUCUUUCUUUCCUUUUUCUGCCG ?: CCGGCAGAAAAAGGAAAGAAAGAAACC | binds |
| ~7 nM | AIcrVIA3 (designed binder) MAPKKYVVTVTIPVTDADLTVFLVVDIIVYAEKLGGTVTITAVKSENDSYSVTLEDLDKAAEELEKVGGSIVLTVTFDNKEKAEKVAEFAYLKAEEYNLKVDVEVKEEL |  |
| ~7 nM | AIcrVIA2 (designed binder) MNEKKEKARKEMKEIAEKAIKEIKKDPEKALEIAVKAVEEIGEIANESGDYKSGEENAWKVAEEYAKVTGDDDTAYDLMLAGDMIIDGKDAEEGYEILKEL |  |
